These are literature values, as cited in publication PMC4443854.

The pKd is −log10 of the Kd, conventionally taken in molar units.

pKd: −log10 of the molar value.

The series deals with actin filaments (F-actin) (Oryctolagus cuniculus) (UniProt P68135).

AIP1 (from UniProt O75083): the pKd was 5.60.
